Results published in the Human Domainome abundance scans (Beltran et al. 2025).
± gives the uncertainty stated by the source.

B1: Zinc finger homeobox protein 3, residues 2643 to 2698; numbered along this chain, Q15911 (parent)
chain: RLRTTITPEQLEILYQKYLLDSNPTRKMLDHIAHEVGLKKRVVQVWFQNTRARERK

Variants of: B1
Test: abundance fitness (aPCA) (normalised: wild type 0, dead -1); higher = more abundant; growth selection in yeast, the domain comes from the species named
Conditions: Homo sapiens

Abundance fitness: each site, then its substitutions
L14: N -1.14 ± 0.24, S -0.763 ± 0.1, K -0.899 ± 0.16, C -0.886 ± 0.18
E35: C -0.351 ± 0.12, W -0.509 ± 0.11, N -1.01 ± 0.28, S -0.224 ± 0.083
R55: M 0.483 ± 0.21, V 0.282 ± 0.082, F 0.004 ± 0.18, Q 0.216 ± 0.18, S 0.347 ± 0.094
V45: W -0.317 ± 0.11, E 0.452 ± 0.097, L 0.122 ± 0.084, K -0.399 ± 0.12, M -0.005 ± 0.1, Y -0.263 ± 0.14, I 0.158 ± 0.11, P -0.764 ± 0.14, R -0.561 ± 0.084
P8: E -0.259 ± 0.14, N -0.06 ± 0.3, T -0.116 ± 0.16, D -0.084 ± 0.14
R53: K -0.045 ± 0.12, D 0.31 ± 0.14, E 0.288 ± 0.11, M -0.132 ± 0.098, C 0.052 ± 0.12, L -0.006 ± 0.08, V 0.013 ± 0.076
K40: D 0.006 ± 0.16, M 0.192 ± 0.12, P 0.258 ± 0.1, C -0.195 ± 0.14, Y 0.16 ± 0.18
G37: D -0.384 ± 0.1, V -0.812 ± 0.09, R -0.27 ± 0.071, A -0.366 ± 0.084, K -0.007 ± 0.12
A33: V -0.492 ± 0.084, P -0.746 ± 0.085, T -0.43 ± 0.08, Y -0.822 ± 0.11, L -0.872 ± 0.089, N -0.906 ± 0.11
Q16: D -0.246 ± 0.13, S -0.213 ± 0.1, K -0.106 ± 0.13, G -0.113 ± 0.077, A 0.052 ± 0.086, N -0.226 ± 0.21, H -0.267 ± 0.19
I32: H -0.527 ± 0.26, P -0.915 ± 0.13, W -0.129 ± 0.11, M -0.466 ± 0.1, A -0.886 ± 0.1, N -1.25 ± 0.25, C -0.749 ± 0.17, E -0.9 ± 0.13
E9: H -0.229 ± 0.082, T -0.211 ± 0.085, Y -0.286 ± 0.08
H34: F -0.114 ± 0.15, S 0.009 ± 0.089, Q -0.017 ± 0.1, M -0.092 ± 0.14, G 0.062 ± 0.093, A -0.123 ± 0.11
L20: D -0.226 ± 0.16, M 0.093 ± 0.11, P -1.08 ± 0.17, H -0.286 ± 0.13, A -0.211 ± 0.096
T25: W -0.951 ± 0.13, A -0.243 ± 0.087, H -0.448 ± 0.19, G -0.394 ± 0.074, V -0.349 ± 0.082, Y -0.908 ± 0.32, D 0.189 ± 0.11
S22: G -0.034 ± 0.07, H -0.24 ± 0.17, Y -0.624 ± 0.23
L29: T -0.273 ± 0.097, K -0.695 ± 0.16, N -0.724 ± 0.16, P -0.8 ± 0.15, V -0.043 ± 0.082, I 0.167 ± 0.13, G -0.683 ± 0.092
V36: H -0.964 ± 0.2, N -0.761 ± 0.25, D -0.853 ± 0.2, L -0.145 ± 0.094, F -0.568 ± 0.15, T 0.053 ± 0.12
V42: K 0.16 ± 0.15, I -0.073 ± 0.12, G -0.43 ± 0.081, M -0.068 ± 0.11, C -0.021 ± 0.12, H -0.288 ± 0.17, T 0.037 ± 0.11
L19: G -0.175 ± 0.078, Y -0.339 ± 0.16, M 0.039 ± 0.13, Q -0.233 ± 0.13, S -0.154 ± 0.092, K -0.022 ± 0.18
Q48: F -0.802 ± 0.24, N -0.21 ± 0.23, K 0.096 ± 0.13, L -0.268 ± 0.11, A 0.122 ± 0.12, G -0.164 ± 0.075, T 0.028 ± 0.15
L2: F 0.082 ± 0.16, Y 0.222 ± 0.16, W -0.134 ± 0.13, T 0.25 ± 0.12, D 0.655 ± 0.14
Y15: T -0.007 ± 0.12, W 0.072 ± 0.096, G 0.126 ± 0.075, L 0.016 ± 0.09, K 0.051 ± 0.12, F -0.444 ± 0.17, H -0.152 ± 0.16
W46: F -0.462 ± 0.3, M -0.956 ± 0.2, G -0.792 ± 0.1, Y -0.261 ± 0.34, H -0.897 ± 0.31, R -0.678 ± 0.094
D21: E -0.008 ± 0.14, M -0.22 ± 0.14, V -0.407 ± 0.099, Y -0.675 ± 0.22, S -0.417 ± 0.11, K -0.924 ± 0.2, F -0.373 ± 0.23, W -0.741 ± 0.12
R3: D 0.543 ± 0.11, W 0.241 ± 0.1, N 0.173 ± 0.17, E 0.366 ± 0.1, Q 0.353 ± 0.13, H 0.199 ± 0.15
K39: M 0.13 ± 0.11, H -0.392 ± 0.18, P 0.224 ± 0.12, D 0.189 ± 0.13, F -0.929 ± 0.28
K56: W -0.314 ± 0.28, G 0.001 ± 0.15, E 0.466 ± 0.2, A 0.034 ± 0.33, L -0.527 ± 0.29, P -0.225 ± 0.38
L38: C -0.329 ± 0.14, Q -0.734 ± 0.16, S -0.601 ± 0.099, I -0.786 ± 0.23, T -0.616 ± 0.13, R -0.846 ± 0.086, E -0.869 ± 0.12, V -0.163 ± 0.078
R41: E 0.475 ± 0.12, H 0.031 ± 0.19, S 0.411 ± 0.1, F -0.203 ± 0.2, L -0.001 ± 0.1, K 0.297 ± 0.18, M -0.078 ± 0.18
T50: W -0.156 ± 0.091, P -0.6 ± 0.12, Q 0.243 ± 0.12, D -0.731 ± 0.15, M 0.092 ± 0.13, L -0.177 ± 0.09, I -0.247 ± 0.11, R -0.037 ± 0.072, S -0.202 ± 0.094
A52: Q 0.21 ± 0.11, P -0.598 ± 0.14, C -0.209 ± 0.12, E 0.291 ± 0.12, G -0.037 ± 0.078, Y -0.221 ± 0.22, T -0.419 ± 0.1
Q44: W -0.669 ± 0.14, E 0.283 ± 0.098, D 0.481 ± 0.12, G 0.023 ± 0.091, V -0.179 ± 0.085, L -0.347 ± 0.082
Q10: I -0.27 ± 0.079, H -0.356 ± 0.074, G -0.854 ± 0.094, S -0.48 ± 0.069, R -0.755 ± 0.083, P -0.717 ± 0.081
N23: Y -0.1 ± 0.27, G -0.276 ± 0.091, S -0.113 ± 0.11, H -0.354 ± 0.26, F 0.149 ± 0.18, K -0.335 ± 0.17, C -0.594 ± 0.2, W -0.155 ± 0.11, D -0.336 ± 0.27, P -0.965 ± 0.22
V43: Q -1 ± 0.16, W -1.07 ± 0.18, L -0.485 ± 0.097, C -0.345 ± 0.15, E -1.11 ± 0.14, M -0.889 ± 0.15, H -0.973 ± 0.23, Y -0.807 ± 0.22, S -0.821 ± 0.11
T7: S -0.169 ± 0.092, P 0.101 ± 0.14, E 0.087 ± 0.096, Y -0.487 ± 0.26, V -0.688 ± 0.1
I13: K -0.096 ± 0.12, T -0.01 ± 0.1, C -0.058 ± 0.094, F 0.119 ± 0.14, R -0.123 ± 0.082, A -0.079 ± 0.098
K27: D 0.229 ± 0.15, T 0.036 ± 0.093, P 0.16 ± 0.1, Y -0.241 ± 0.18, C -0.342 ± 0.17, V -0.007 ± 0.081, E 0.243 ± 0.094, N -0.246 ± 0.18, G 0.077 ± 0.074
E12: A -0.07 ± 0.082, V -0.396 ± 0.088, P -0.87 ± 0.15, M 0.335 ± 0.11, Q -0.049 ± 0.13, D -0.109 ± 0.12, I -0.438 ± 0.19, N -0.074 ± 0.18, K -0.625 ± 0.21
L11: G -0.02 ± 0.072, Q -0.133 ± 0.11, H 0.028 ± 0.13, N 0.305 ± 0.25
K17: V -0.52 ± 0.093, Y -0.096 ± 0.26, M 0.114 ± 0.13, I -0.628 ± 0.44, D -0.651 ± 0.2, F 0.528 ± 0.31, A -0.08 ± 0.093
E54: N -0.531 ± 0.1, A -0.478 ± 0.072, Y -0.438 ± 0.11, L -0.2 ± 0.069, Q -0.495 ± 0.11, M -0.177 ± 0.09, S -0.497 ± 0.074
R51: Y 0.073 ± 0.17, P -0.812 ± 0.14, S 0.024 ± 0.093, W -0.135 ± 0.11, Q 0.229 ± 0.12, D -0.474 ± 0.14
T5: N -0.233 ± 0.19, H -0.784 ± 0.31, E 0.445 ± 0.15, A 0.132 ± 0.097, V -0.172 ± 0.089, K -0.593 ± 0.23, P 0.176 ± 0.17, M 0.286 ± 0.15, I -0.165 ± 0.14
I6: P -0.182 ± 0.083, Q -0.705 ± 0.12, N -0.702 ± 0.091
H31: Q 0.169 ± 0.15, N 0.315 ± 0.16, M 0.073 ± 0.12, P -0.836 ± 0.19, S 0.215 ± 0.086, W -0.251 ± 0.14, C 0.096 ± 0.13, K -0.166 ± 0.15
T4: D 0.154 ± 0.19, R -0.576 ± 0.095
N49: R -0.267 ± 0.082, V -0.229 ± 0.093, K 0.011 ± 0.12, F -0.531 ± 0.18, P -0.778 ± 0.17
R26: A 0.434 ± 0.088, C 0.306 ± 0.1
D30: M -0.314 ± 0.13, I -0.071 ± 0.14, W -0.442 ± 0.12, F -0.446 ± 0.22, G -0.073 ± 0.077, E -0.29 ± 0.11
R1: I -0.063 ± 0.41, V 0.297 ± 0.19, C 0.239 ± 0.16, N 0.354 ± 0.26, L 0.561 ± 0.31, Y 0.054 ± 0.32
P24: D -0.634 ± 0.13, I -0.747 ± 0.17, Q -0.354 ± 0.14
Y18: G -0.899 ± 0.093, E -0.948 ± 0.19, V -0.644 ± 0.1, R -0.865 ± 0.11, L -0.552 ± 0.12, Q -0.698 ± 0.2, N -0.705 ± 0.32
F47: R -0.757 ± 0.095, C -0.945 ± 0.17, D -0.833 ± 0.23, H -1.09 ± 0.32
